Source: IntAct's records for PubMed 33965375

Molecular target: spike_sars2 S (UniProt P0DTC2)

Substance	effect of a mutation on the interaction
Endoplasmic reticulum chaperone BiP (Homo sapiens), P11021 G227D	decreasing interaction strength
Endoplasmic reticulum chaperone BiP (Homo sapiens), P11021 R197H	decreasing interaction strength
